# Assays:
# [1] = substrate: NC(=O)c1ccc[n+]([C@@H]2O[C@H](COP(=O)(O)OP(=O)(O)OC[C@H]3O[C@@H](n4cnc5c(N)ncnc54)[C@H](O)[C@@H]3O)[C@@H](O)[C@H]2O)c1; assay: purified protein; format: biochemical, Sphingopyxis fribergensis; details: phenylacetaldehyde 0.5 mmol L^-1, pH 7.7, aldehyde made from styrene oxide by SOI-1CP, varied: cofactor
# [2] = substrate: O=CCc1ccccc1; assay: purified protein; format: biochemical, Sphingopyxis fribergensis; details: NAD+ 2.5 mmol L^-1, pH 7.7, aldehyde made from styrene oxide by SOI-1CP
protein,measurement,setting,value
FeaB-Kp5.2 (Sphingopyxis fribergensis) (protein) MATAQSYVTPLSAVSTFIGHDHGLFIDGDWRAAKGTERLDVFDPSTGEPIASVANASPDDVDHAVRAAHKAFESGVWSGIAPAERERLLLKFADLVEANAEELAQIETLNQGKSINISRFVDVGGAPAYMRYVAGLTTKITGETFDVSIGAIPGARFTASTRREPIGVVGAIAPWNFPMMIGLWKIMPALAAGCTVVLKPSEVTPLTSLRLASLAKEAGLPAGVLNVITGDGKAGKALVDHPLVAKITFTGSTATGKAIARSASDRLLRTSLELGGKNPAIFLADAPIEQAVQGAILGGFFNNGQVCAASSRLYIARAIYDPFIKALAHAVDGMTMGPGLDTAAQINPVVSLQHRAKILDHIARARQDGAQIVAGGESPDRAGYYVRPTVVVGAGAQLAISRQEVFGPLVTVTPFDDEDEAINLANDTEMGLTASLWTNDLKKTMDLVPRIKAGTVWVNCHNLIDPNMPFGGYKESGIGRDFGIHSLDGYSEVKSVCIAH,Km,[1],0.5 ± 0.3 mmol/L
same,Vmax,[1],17.8 µmol/min/mg
same,kcat,[1],62.5 s⁻¹
same,Km,[2],0.022 ± 0.005 mmol/L
same,Vmax,[2],14.8 µmol/min/mg
same,kcat,[2],52 s⁻¹

# Source: PMC7910268
